In patent US20210309707A1 (Stanford University, published 2021):

Target: T1, interferon-gamma receptor subunit 2 (IFN-γR2) (UniProt P38484 28-247, limits assumed)
T1 construct: Soluble purified protein (crystallised; analyte in SPR)
T1 sequence (looked up): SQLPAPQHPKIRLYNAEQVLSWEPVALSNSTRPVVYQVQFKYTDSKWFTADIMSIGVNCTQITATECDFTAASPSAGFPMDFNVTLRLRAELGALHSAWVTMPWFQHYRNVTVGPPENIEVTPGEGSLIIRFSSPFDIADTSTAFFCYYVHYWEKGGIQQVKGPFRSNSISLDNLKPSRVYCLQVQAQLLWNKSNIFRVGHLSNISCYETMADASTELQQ
Assay: SPR (Biacore T100, equilibrium); IFN-γR2 dilutions over captured IFN-γR1 in the presence of 50 nM mutant IFN-γ
Method: The structure of the IFN-γ signaling complex as described in Example 2 above provided opportunities to address new questions to further understand IFN-γ signaling and activity. By identifying the shared interactions, previously unknown, at sites IIa/IIb, one now can better understand IFN-γ signaling at each step of complex formation. Since IFN-γ is a dimeric cytokine driving the dimerization of four receptors, further experiments were performed to design and generate variants of IFN-γ to affect one or more of the different signaling intermediates. The design of the partial agonists was achieved by first engineering a version of IFN-γ that abolished binding to IFN-γR2 receptor. Based on the structure described in Example 2, a triple IFN-γ mutant having three amino acid substitutions K74A, E75Y, and N83R (See FIG. 3A) was designed and validated for the loss of measurable binding to IFN-γR2 as determined by surface plasmon resonance (FIGS. 3B-3D). Without being bound to any particular theory, several other mutations or combinations thereof of the IFN-γR2 binding site amino acids of IFN-γ as indicated in the crystal structure (FIG. 2), either alone or in combination with mutations within the IFN-γR1 binding site, could also result in similar effects on IFN-γR2 binding. […]

binding result: no binding
B1: triple IFN-γ mutant having three amino acid substitutions K74A, E75Y, and N83R (ligand)
chain: QDPYVKEAENLKKYFNAGHSDVADNGTLFLGILKNWKEESDRKIMQSQIVSFYFKLFKNFKDDQSIQKSVETIAYDMNVKFFRSNKKKRDDFEKLTNYSVTDLNVQRKAIHELIQVMAELSPAAKTGKRKRSQ
notes: also called IFN-γ (K74A/E75Y/N75R); IFN-γK74A/E75Y/N83A
